The nature of the data set: In Vivo Interferon Delivery (ELISA for human interferon). More on the design: species or system Rats. As to conditions: 1 mg/kg interferon, no carrier. In general terms: ELISA stands for enzyme-linked immunosorbent assay.

interferon: the “Mean peak serum interferon concentration” value was 79±100 (IC) and 1951±1857 (PO).

Values taken from US6060513A, “Compounds and compositions for delivering active agents” (Emisphere Technologies, Inc., priority 1997, dated 2000).
